The test addresses spike glycoprotein of live SARS-CoV-2 (isolate USA-WA1/2020) (SARS-CoV-2) (UniProt P0DTC2). Description: cell-based or functional assay.

S2D106-LS (antibody) yielded an EC50 (live SARS-CoV-2-luc neutralisation, MOI 0.1, 6 h) of 6 ng/mL; an EC90 (live SARS-CoV-2-luc neutralisation, MOI 0.1, 6 h) of 22 ng/mL; an IC50 (live SARS-CoV-2-luc neutralisation, MOI 0.1, 6 h) of 4.49 ng/mL.

The values are drawn from CN116745314A.
